The target in this assay is C3b (UniProt P01024 23-667; P01024 749-1663). In words: SPR. (In general: Surface plasmon resonance follows binding to a sensor surface in real time, without labels.)

These results are taken from article PMC4067574 (Protein expression and purification, 2010).

Values joined by “and” are separate entries in the source; they are usually repeats but may differ in a detail not shown here. Equal entries are not always repeated.

C3b, sequence (P01024 23-667, chain 1 of 2): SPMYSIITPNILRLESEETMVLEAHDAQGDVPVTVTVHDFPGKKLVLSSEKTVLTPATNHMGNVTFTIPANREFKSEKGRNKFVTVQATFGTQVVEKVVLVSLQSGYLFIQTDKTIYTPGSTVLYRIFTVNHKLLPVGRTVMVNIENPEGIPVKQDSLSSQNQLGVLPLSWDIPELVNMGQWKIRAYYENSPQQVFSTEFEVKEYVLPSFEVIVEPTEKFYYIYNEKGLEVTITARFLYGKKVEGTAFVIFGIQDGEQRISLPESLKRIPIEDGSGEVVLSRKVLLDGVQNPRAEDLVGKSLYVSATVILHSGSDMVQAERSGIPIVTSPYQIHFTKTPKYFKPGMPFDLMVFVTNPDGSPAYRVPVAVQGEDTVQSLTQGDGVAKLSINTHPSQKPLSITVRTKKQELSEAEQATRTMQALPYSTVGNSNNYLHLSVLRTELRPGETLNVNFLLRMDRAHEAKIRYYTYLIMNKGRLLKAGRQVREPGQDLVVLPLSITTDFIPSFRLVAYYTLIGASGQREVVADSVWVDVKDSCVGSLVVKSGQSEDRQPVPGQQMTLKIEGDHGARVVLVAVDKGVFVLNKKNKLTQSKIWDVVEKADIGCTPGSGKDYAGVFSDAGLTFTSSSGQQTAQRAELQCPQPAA
C3b, sequence (P01024 749-1663, chain 2 of 2): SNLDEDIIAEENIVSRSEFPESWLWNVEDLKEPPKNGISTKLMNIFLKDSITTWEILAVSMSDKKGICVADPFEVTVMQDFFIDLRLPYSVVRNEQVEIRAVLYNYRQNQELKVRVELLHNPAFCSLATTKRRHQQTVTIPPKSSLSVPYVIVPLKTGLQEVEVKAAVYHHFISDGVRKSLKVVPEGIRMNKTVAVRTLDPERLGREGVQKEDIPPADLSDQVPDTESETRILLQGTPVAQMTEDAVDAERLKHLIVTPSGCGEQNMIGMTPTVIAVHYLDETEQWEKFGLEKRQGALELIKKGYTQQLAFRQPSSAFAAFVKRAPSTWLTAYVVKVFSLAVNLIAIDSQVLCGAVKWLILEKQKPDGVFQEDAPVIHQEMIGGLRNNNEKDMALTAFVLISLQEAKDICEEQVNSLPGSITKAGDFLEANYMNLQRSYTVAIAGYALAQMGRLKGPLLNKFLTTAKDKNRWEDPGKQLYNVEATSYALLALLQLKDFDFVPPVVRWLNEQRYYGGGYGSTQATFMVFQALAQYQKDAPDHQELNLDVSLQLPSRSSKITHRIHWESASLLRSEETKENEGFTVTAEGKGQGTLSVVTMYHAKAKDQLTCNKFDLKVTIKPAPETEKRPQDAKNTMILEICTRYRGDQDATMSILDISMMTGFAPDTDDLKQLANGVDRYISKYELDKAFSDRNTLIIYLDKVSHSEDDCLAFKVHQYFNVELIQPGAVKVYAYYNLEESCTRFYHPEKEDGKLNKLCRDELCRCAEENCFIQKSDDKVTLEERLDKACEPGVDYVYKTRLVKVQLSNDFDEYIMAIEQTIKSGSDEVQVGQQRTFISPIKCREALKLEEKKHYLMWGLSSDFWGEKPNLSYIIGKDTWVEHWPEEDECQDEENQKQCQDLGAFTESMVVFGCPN

B1: recombinant human complement factor H, V62,Y402 variant (rFH), Endo Hf-deglycosylated (natural protein, UniProt P08603 19-1231, looked up)
chain: EDCNELPPRRNTEILTGSWSDQTYPEGTQAIYKCRPGYRSLGNVIMVCRKGEWVALNPLRKCQKRPCGHPGDTPFGTFTLTGGNVFEYGVKAVYTCNEGYQLLGEINYRECDTDGWTNDIPICEVVKCLPVTAPENGKIVSSAMEPDREYHFGQAVRFVCNSGYKIEGDEEMHCSDDGFWSKEKPKCVEISCKSPDVINGSPISQKIIYKENERFQYKCNMGYEYSERGDAVCTESGWRPLPSCEEKSCDNPYIPNGDYSPLRIKHRTGDEITYQCRNGFYPATRGNTAKCTSTGWIPAPRCTLKPCDYPDIKHGGLYHENMRRPYFPVAVGKYYSYYCDEHFETPSGSYWDHIHCTQDGWSPAVPCLRKCYFPYLENGYNQNYGRKFVQGKSIDVACHPGYALPKAQTTVTCMENGWSPTPRCIRVKTCSKSSIDIENGFISESQYTYALKEKAKYQCKLGYVTADGETSGSITCGKDGWSAQPTCIKSCDIPVFMNARTKNDFTWFKLNDTLDYECHDGYESNTGSTTGSIVCGYNGWSDLPICYERECELPKIDVHLVPDRKKDQYKVGEVLKFSCKPGFTIVGPNSVQCYHFGLSPDLPICKEQVQSCGPPPELLNGNVKEKTKEEYGHSEVVEYYCNPRFLMKGPNKIQCVDGEWTTLPVCIVEESTCGDIPELEHGWAQLSSPPYYYGDSVEFNCSESFTMIGHRSITCIHGVWTQLPQCVAIDKLKKCKSSNLIILEEHLKNKKEFDHNSNIRYRCRGKEGWIHTVCINGRWDPEVNCSMAQIQLCPPPPQIPNSHNMTTTLNYRDGEKVSVLCQENYLIQEGEEITCKDGRWQSIPLCVEKIPCSQPPQIEHGTINSSRSSQESYAHGTKLSYTCEGGFRISEENETTCYMGKWSSPPQCEGLPCKSPPEISHGVVAHMSDSYQYGEEVTYKCFEGFGIDGPAIAKCLGEKWSHPPSCIKTDCLSLPSFENAIPMGEKKDVYKAGEQVTYTCATYYKMDGASNVTCINSRWTGRPTCRDTSCVNPPTVQNAYIVSRQMSKYPSGERVRYQCRSPYEMFGDEEVMCLNGNWTEPPQCKDSTGKCGPPPPIDNGDITSFPLSVYAPASSVEYQCQNLYQLEGNKRITCRNGQWSEPPKCLHPCVISREIMENYNIALRWTAKQKLYSRTGESVEFVCKRGYRLSSRSHTLRTTCWDGKLEYPTCAKR
modifications: eight residual N-acetylglucosamine moieties after endoglycosidase H (Endo Hf) digestion of the N-linked glycans
With B1, the Kd – broadly, the constant that tells how readily two partners part at equilibrium – is 1500 nM and 1400 nM.

B2: plasma-purified human complement factor H (reference FH) (natural protein, UniProt P08603 19-1231, looked up)
chain: B1 chain
modifications: eight N-glycans (native protein)
Consider B2, for which the Kd is 2900 nM.
